Experimental data: PMC4631838, “Molecular architecture of the yeast Mediator complex” (eLife, 2015)

T1: Med1, Mediator Middle module subunit (S. cerevisiae, UniProt Q12321 1-566)
T1 construct: Med1, S. cerevisiae, endogenous; source: endogenous, S. cerevisiae CB010 double-tagged strain; within the purified native holoenzyme
T1 sequence (looked up): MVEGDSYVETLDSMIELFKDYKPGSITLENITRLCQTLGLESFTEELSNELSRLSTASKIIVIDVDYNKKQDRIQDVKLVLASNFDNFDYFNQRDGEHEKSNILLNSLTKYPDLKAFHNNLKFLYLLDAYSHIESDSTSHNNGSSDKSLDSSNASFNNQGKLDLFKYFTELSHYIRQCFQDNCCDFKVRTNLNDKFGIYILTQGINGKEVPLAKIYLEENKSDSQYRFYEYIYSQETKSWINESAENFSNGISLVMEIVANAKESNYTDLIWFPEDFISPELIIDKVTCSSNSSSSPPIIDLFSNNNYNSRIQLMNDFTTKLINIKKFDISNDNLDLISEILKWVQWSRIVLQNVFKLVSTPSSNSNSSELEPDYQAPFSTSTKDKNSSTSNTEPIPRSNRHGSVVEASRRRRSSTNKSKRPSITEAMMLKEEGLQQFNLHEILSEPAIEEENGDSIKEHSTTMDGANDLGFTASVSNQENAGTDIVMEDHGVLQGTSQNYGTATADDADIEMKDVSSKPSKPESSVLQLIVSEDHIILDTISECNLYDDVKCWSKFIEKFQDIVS

T2: Med14 (Rgr1), Mediator subunit (S. cerevisiae, UniProt P19263 1-1082)
T2 construct: Med14 (Rgr1), S. cerevisiae, endogenous, residues 1-1082 spoken of; source: endogenous, S. cerevisiae CB010 double-tagged strain; within the purified native holoenzyme
T2 sequence (looked up): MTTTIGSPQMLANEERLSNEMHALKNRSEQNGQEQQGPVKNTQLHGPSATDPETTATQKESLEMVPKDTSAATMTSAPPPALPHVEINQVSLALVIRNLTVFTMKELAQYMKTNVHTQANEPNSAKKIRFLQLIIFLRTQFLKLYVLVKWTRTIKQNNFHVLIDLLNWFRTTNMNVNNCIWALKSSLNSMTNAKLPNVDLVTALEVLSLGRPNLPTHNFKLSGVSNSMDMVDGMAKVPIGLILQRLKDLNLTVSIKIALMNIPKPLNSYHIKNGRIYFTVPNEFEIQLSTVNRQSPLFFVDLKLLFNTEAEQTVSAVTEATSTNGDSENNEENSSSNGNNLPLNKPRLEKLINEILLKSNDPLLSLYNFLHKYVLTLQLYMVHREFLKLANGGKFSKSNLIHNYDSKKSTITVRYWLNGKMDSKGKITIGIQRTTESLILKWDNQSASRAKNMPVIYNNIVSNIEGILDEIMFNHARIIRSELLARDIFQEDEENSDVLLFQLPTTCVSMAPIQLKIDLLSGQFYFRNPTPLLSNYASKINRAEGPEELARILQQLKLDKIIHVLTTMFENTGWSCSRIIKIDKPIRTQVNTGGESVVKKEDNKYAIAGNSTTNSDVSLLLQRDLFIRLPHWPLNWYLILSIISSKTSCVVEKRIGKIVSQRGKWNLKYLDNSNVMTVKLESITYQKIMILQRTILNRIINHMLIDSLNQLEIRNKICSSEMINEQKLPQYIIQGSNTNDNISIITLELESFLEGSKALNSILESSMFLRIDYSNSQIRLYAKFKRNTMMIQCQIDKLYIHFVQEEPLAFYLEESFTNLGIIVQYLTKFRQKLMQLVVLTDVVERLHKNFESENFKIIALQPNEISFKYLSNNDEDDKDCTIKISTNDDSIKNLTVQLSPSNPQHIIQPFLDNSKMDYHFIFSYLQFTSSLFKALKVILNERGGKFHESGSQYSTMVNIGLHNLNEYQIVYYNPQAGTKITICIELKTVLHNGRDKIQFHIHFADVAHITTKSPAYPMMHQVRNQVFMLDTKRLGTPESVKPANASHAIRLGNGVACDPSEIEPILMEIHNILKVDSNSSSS

T3: Med17 (Srb4), Mediator Head module subunit (S. cerevisiae, UniProt P32569 1-687)
T3 construct: Med17 (Srb4), S. cerevisiae, endogenous, residues 1-687 spoken of; cross-linking was done after cleavage; also called Med17p; source: endogenous, S. cerevisiae CB010 double-tagged strain; within the purified native holoenzyme; not shown: TAP, N-terminal, cleaved
T3 sequence (looked up): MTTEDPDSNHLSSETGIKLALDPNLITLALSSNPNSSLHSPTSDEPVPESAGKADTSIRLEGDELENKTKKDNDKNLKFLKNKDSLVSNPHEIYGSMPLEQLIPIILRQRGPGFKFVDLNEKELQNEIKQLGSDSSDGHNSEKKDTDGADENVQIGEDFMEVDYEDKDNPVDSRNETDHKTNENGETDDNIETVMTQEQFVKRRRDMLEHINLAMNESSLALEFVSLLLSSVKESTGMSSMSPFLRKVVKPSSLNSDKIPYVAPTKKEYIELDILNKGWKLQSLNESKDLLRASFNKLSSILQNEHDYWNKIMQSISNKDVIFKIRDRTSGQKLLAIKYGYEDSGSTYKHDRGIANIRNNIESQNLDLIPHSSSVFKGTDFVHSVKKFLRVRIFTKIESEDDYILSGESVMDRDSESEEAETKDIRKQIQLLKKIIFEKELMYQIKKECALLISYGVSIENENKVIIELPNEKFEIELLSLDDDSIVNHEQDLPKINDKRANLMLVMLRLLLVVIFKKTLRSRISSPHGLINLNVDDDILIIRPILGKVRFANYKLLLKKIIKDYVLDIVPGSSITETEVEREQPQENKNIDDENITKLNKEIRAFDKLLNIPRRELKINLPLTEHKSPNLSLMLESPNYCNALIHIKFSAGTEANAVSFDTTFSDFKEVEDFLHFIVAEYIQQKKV

B1: Med9 (Cse2), Mediator Middle module subunit (natural protein, S. cerevisiae, UniProt P33308 1-149, looked up)
chain: MNLQNNVLNQIHQILLPTNPTLDKPNAEATKEEFSSAENRDEKDYLTNQQPKNLSTPSTSSNGEFIPHIFYSLHQIRKDPNNLSNQLETLTGSIRHRLKLCKSLISENEDTKDLLSKSPSEWQDIIHQREQELQIKRDVLDDLYRKLQR
notes: Med9 (Cse2), S. cerevisiae, endogenous; source: endogenous, S. cerevisiae CB010 double-tagged strain; within the purified native holoenzyme
B2: Med21, Mediator Middle module subunit (natural protein, S. cerevisiae, UniProt P47822 1-140, looked up)
chain: MTDRLTQLQICLDQMTEQFCATLNYIDKNHGFERLTVNEPQMSDKHATVVPPEEFSNTIDELSTDIILKTRQINKLIDSLPGVDVSAEEQLRKIDMLQKKLVEVEDEKIEAIKKKEKLLRHVDSLIEDFVDGIANSKKST
notes: Med21 (printed old name Sbr7), S. cerevisiae, endogenous; also called Sbr7; source: endogenous, S. cerevisiae CB010 double-tagged strain; within the purified native holoenzyme
B3: Med7, Mediator Middle module subunit (natural protein, S. cerevisiae, UniProt Q08278 1-222, looked up)
chain: MSNDPGNEVSSLYPPPPPYVKFFTQSNLEKLPKYKEKKAASAKQTAPNNSNGGSEEEITCALDYLIPPPMPKNQQYRAFGSIWQVKDQLPDLESMGLTQLYKKSTENESTNYQYKIQELRKLLKSLLLNYLELIGVLSINPDMYERKVENIRTILVNIHHLLNEYRPHQSRESLIMLLEEQLEYKRGEIREIEQVCKQVHDKLTSIQDTLRTGSQSPPSSSQ
notes: Med7, S. cerevisiae, endogenous; source: endogenous, S. cerevisiae CB010 double-tagged strain; within the purified native holoenzyme

Legend:
Test in all cases: cross-linking; BS3 (unlabeled, or 50:50 with 2H12-labeled BS3) on the purified native holoenzyme; 150 mM NaPO4, 150 mM KOAc, pH 7.5, 5% glycerol, 2 mM DTT; procedure A 2.7 mM reagent 120 min on ice; trypsin digest, LC-MS/MS, Protein Prospector
Conditions in all cases: both partners purified
[1] = target: T1, Med1, Mediator Middle module subunit
[2] = target: T2, Med14 (Rgr1), Mediator subunit
[3] = target: T3, Med17 (Srb4), Mediator Head module …

Binder | binding result [1] | binding result [2] | binding result [3]
B1 | binds | binds | –
B2 | – | binds | binds
B3 | – | – | binds
